Experimental data taken from PMC12197871 (Protein Science : A Publication of the Protein Society, 2025).

Biological target: GsLDH (Geobacillus stearothermophilus, UniProt P00344)
Test: GsLDH kinetic studies
Type: biochemical

Row | fold higher substrate inhibition (lower K i) compared to the WT (with FBP) | n (Hill coefficient) (without FBP) | Molecule | k cat (with FBP (5 mM)) | k cat/K m or k cat/K 0.5 (with FBP (5 mM)) | k cat (without FBP) | k cat/K m or k cat/K 0.5 (without FBP)
1 | 20 fold | 1.4 ± 0.1 | Gln189Leu: GsLDH single mutant Gln189Leu, located at the dimer–dimer interface (protein, UniProt P00344 1-317, looked up, variant Q189L) L-lactate dehydrogenase: MKNNGGARVVVIGAGFVGASYVFALMNQGIADEIVLIDANESKAIGDAMDFNHGKVFAPKPVDIWHGDYDDCRDADLVVICAGANQKPGETRLDLVDKNIAIFRSIVESVMASGFQGLFLVATNPVDILTYATWKFSGLPHERVIGSGTILDTARFRFLLGEYFSVAPQNVHAYIIGEHGDTELPVWSLAYIGVMPIRKLVESKGEEAQKDLERIFVNVRDAAYQIIEKKGATYYGIAMGLARVTRAILHNENAILTVSAYLDGLYGERDVYIGVPAVINRNGIREVIEIELNDDEKNRFHHSAATLKSVLARAFTR | 83 s⁻¹ | 106000 ± 19000 M⁻¹ s⁻¹ | 73 ± 12 s⁻¹ | 32000 ± 4000 M⁻¹ s⁻¹
2 |  |  | Triple mutant: previously reported GsLDH triple mutant with substitutions Arg104Cys, Gln189Leu and Asn293Ser (protein, UniProt P00344 1-317, looked up, variant R104C Q189L N293S) L-lactate dehydrogenase: MKNNGGARVVVIGAGFVGASYVFALMNQGIADEIVLIDANESKAIGDAMDFNHGKVFAPKPVDIWHGDYDDCRDADLVVICAGANQKPGETRLDLVDKNIAIFCSIVESVMASGFQGLFLVATNPVDILTYATWKFSGLPHERVIGSGTILDTARFRFLLGEYFSVAPQNVHAYIIGEHGDTELPVWSLAYIGVMPIRKLVESKGEEAQKDLERIFVNVRDAAYQIIEKKGATYYGIAMGLARVTRAILHNENAILTVSAYLDGLYGERDVYIGVPAVINRNGIREVIEIELSDDEKNRFHHSAATLKSVLARAFTR | 94 s⁻¹ | 156000 ± 59000 M⁻¹ s⁻¹ | 57 ± 8 s⁻¹ | 141000 ± 18000 M⁻¹ s⁻¹
3 |  | 1.5 ± 0.1 | WT: wild‐type L‐lactate dehydrogenase from Geobacillus stearothermophilus (UniProt P00344), N‐terminal His‐tagged (protein, UniProt P00344 1-317, looked up, N-terminal His-tag) L-lactate dehydrogenase: MKNNGGARVVVIGAGFVGASYVFALMNQGIADEIVLIDANESKAIGDAMDFNHGKVFAPKPVDIWHGDYDDCRDADLVVICAGANQKPGETRLDLVDKNIAIFRSIVESVMASGFQGLFLVATNPVDILTYATWKFSGLPHERVIGSGTILDTARFRFLLGEYFSVAPQNVHAYIIGEHGDTELPVWSQAYIGVMPIRKLVESKGEEAQKDLERIFVNVRDAAYQIIEKKGATYYGIAMGLARVTRAILHNENAILTVSAYLDGLYGERDVYIGVPAVINRNGIREVIEIELNDDEKNRFHHSAATLKSVLARAFTR | 64 s⁻¹ | 144000 ± 67000 M⁻¹ s⁻¹ | 118 ± 34 s⁻¹ | 43000 ± 13000 M⁻¹ s⁻¹
